Results reported in paper PMC2902799.

Key:
Test in all cases: cross-linking
[1] = molecular target: CheA A37C (single-cysteine mutant of cysteine-less CheA) (Salmonella typhimurium) (UniProt P09384)
[2] = molecular target: CheA A114C (single-cysteine mutant of cysteine-less CheA) (Salmonella typhimurium) (UniProt P09384)
[3] = molecular target: CheA E109C (single-cysteine mutant of cysteine-less CheA) (Salmonella typhimurium) (UniProt P09384)
[4] = molecular target: CheA E311C (single-cysteine mutant of cysteine-less CheA) (Salmonella typhimurium) (UniProt P09384)
[5] = molecular target: CheA G636C (single-cysteine mutant of cysteine-less CheA) (Salmonella typhimurium) (UniProt P09384)
[6] = molecular target: CheA L627C (single-cysteine mutant of cysteine-less CheA) (Salmonella typhimurium) (UniProt P09384)
[7] = molecular target: CheA M469C (single-cysteine mutant of cysteine-less CheA) (Salmonella typhimurium) (UniProt P09384)
[8] = molecular target: CheA Q10C (single-cysteine mutant of cysteine-less CheA) (Salmonella typhimurium) (UniProt P09384)
[9] = molecular target: CheA Q10C/D359C (dicysteine mutant of cysteine-less CheA) (Salmonella typhimurium) (UniProt P09384)
[10] = molecular target: CheA Q10C/E311C (dicysteine mutant of cysteine-less CheA) (Salmonella typhimurium) (UniProt P09384)
[11] = molecular target: CheA Q10C/E369C (dicysteine mutant of cysteine-less CheA) (Salmonella typhimurium) (UniProt P09384)
[12] = molecular target: CheA Q10C/E425C (dicysteine mutant of cysteine-less CheA) (Salmonella typhimurium) (UniProt P09384)
[13] = molecular target: CheA Q10C/E460C (dicysteine mutant of cysteine-less CheA) (Salmonella typhimurium) (UniProt P09384)
[14] = molecular target: CheA Q10C/M469C (dicysteine mutant of cysteine-less CheA) (Salmonella typhimurium) (UniProt P09384)
[15] = molecular target: CheA Q10C/Q454C (dicysteine mutant of cysteine-less CheA) (Salmonella typhimurium) (UniProt P09384)
[16] = molecular target: CheA Q10C/S351C (dicysteine mutant of cysteine-less CheA) (Salmonella typhimurium) (UniProt P09384)
[17] = molecular target: CheA Q10C/S514C (dicysteine mutant of cysteine-less CheA) (Salmonella typhimurium) (UniProt P09384)
[18] = molecular target: CheA Q125C (single-cysteine mutant of cysteine-less CheA) (Salmonella typhimurium) (UniProt P09384)
[19] = molecular target: CheA Q596C (single-cysteine mutant of cysteine-less CheA) (Salmonella typhimurium) (UniProt P09384)
[20] = molecular target: CheA R171C (single-cysteine mutant of cysteine-less CheA) (Salmonella typhimurium) (UniProt P09384)
[21] = molecular target: CheA R607C (single-cysteine mutant of cysteine-less CheA) (Salmonella typhimurium) (UniProt P09384)
[22] = molecular target: CheA S514C (single-cysteine mutant of cysteine-less CheA) (Salmonella typhimurium) (UniProt P09384)

Substance: CheA A37C (single-cysteine mutant of cysteine-less CheA) (from UniProt P09384 1-671) (enzyme)
- fraction (%) intradimer [1]: 46%

Substance: CheA A114C (single-cysteine mutant of cysteine-less CheA) (from UniProt P09384 1-671) (enzyme)
- fraction (%) intradimer [2]: 84%

Substance: CheA E109C (single-cysteine mutant of cysteine-less CheA) (from UniProt P09384 1-671) (enzyme)
- fraction (%) intradimer [3]: 82%

Substance: CheA E311C (single-cysteine mutant of cysteine-less CheA) (from UniProt P09384 1-671) (enzyme)
- fraction (%) intradimer [4]: 93%

Substance: CheA G636C (single-cysteine mutant of cysteine-less CheA) (from UniProt P09384 1-671) (enzyme)
- fraction (%) intradimer [5]: 83%

Substance: CheA L627C (single-cysteine mutant of cysteine-less CheA) (from UniProt P09384 1-671) (enzyme)
- fraction (%) intradimer [6]: 100%

Substance: CheA M469C (single-cysteine mutant of cysteine-less CheA) (from UniProt P09384 1-671) (enzyme)
- fraction (%) intradimer [7]: 72%

Substance: CheA Q10C (single-cysteine mutant of cysteine-less CheA) (from UniProt P09384 1-671) (enzyme)
- fraction (%) intradimer [8]: 100%

Substance: CheA Q10C/D359C (dicysteine mutant of cysteine-less CheA) (from UniProt P09384 1-671) (enzyme)
- fraction (%) intradimer [9]: 86%

Substance: CheA Q10C/E311C (dicysteine mutant of cysteine-less CheA) (from UniProt P09384 1-671) (enzyme)
- fraction (%) intradimer [10]: 87%

Substance: CheA Q10C/E369C (dicysteine mutant of cysteine-less CheA) (from UniProt P09384 1-671) (enzyme)
- fraction (%) intradimer [11]: 81%

Substance: CheA Q10C/E425C (dicysteine mutant of cysteine-less CheA) (from UniProt P09384 1-671) (enzyme)
- fraction (%) intradimer [12]: 100%

Substance: CheA Q10C/E460C (dicysteine mutant of cysteine-less CheA) (from UniProt P09384 1-671) (enzyme)
- fraction (%) intradimer [13]: 91%

Substance: CheA Q10C/M469C (dicysteine mutant of cysteine-less CheA) (from UniProt P09384 1-671) (enzyme)
- fraction (%) intradimer [14]: 100%

Substance: CheA Q10C/Q454C (dicysteine mutant of cysteine-less CheA) (from UniProt P09384 1-671) (enzyme)
- fraction (%) intradimer [15]: 100%

Substance: CheA Q10C/S351C (dicysteine mutant of cysteine-less CheA) (from UniProt P09384 1-671) (enzyme)
- fraction (%) intradimer [16]: 100%

Substance: CheA Q10C/S514C (dicysteine mutant of cysteine-less CheA) (from UniProt P09384 1-671) (enzyme)
- fraction (%) intradimer [17]: 49%

Substance: CheA Q125C (single-cysteine mutant of cysteine-less CheA) (from UniProt P09384 1-671) (enzyme)
- fraction (%) intradimer [18]: 81%

Substance: CheA Q596C (single-cysteine mutant of cysteine-less CheA) (from UniProt P09384 1-671) (enzyme)
- fraction (%) intradimer [19]: 100%

Substance: CheA R171C (single-cysteine mutant of cysteine-less CheA) (from UniProt P09384 1-671) (enzyme)
- fraction (%) intradimer [20]: 100%

Substance: CheA R607C (single-cysteine mutant of cysteine-less CheA) (from UniProt P09384 1-671) (enzyme)
- fraction (%) intradimer [21]: 100%

Substance: CheA S514C (single-cysteine mutant of cysteine-less CheA) (from UniProt P09384 1-671) (enzyme)
- fraction (%) intradimer [22]: 50%
